Six molecules from patent US20170334973A1 (published 2017) can be followed below.

To fix the notation:
B1: FVM13 (antibody, V domains shown)
VH: EVQLVQSGAEVKRPGESLKISCKTSGYTFTSSWISWVRQMPGKGLEWLGSIYPGDSDTRYNPSFQGHVTISADTSIITTHLQWSSLKASDTATYYCVKGSETWGQGVLVTVSS
VL: KPMLTQPTSLSASPGASASLTCTFSGGINVAGYNILWYQQKAGSPPRYLLRYKSDSTKDQGSGVPSRFSGSKDASANTGILRISGLQSEDEADYYCAIGHSSGWIFGGGTRLTVL
B2: FVM20 (antibody, V domains shown)
VH: EVQLVESGAEVKRPGESLTISCKTSGYSFTGSWISWVRQMPGKGLEWLGSIYPGDSETKYNPSFQGHVTISADKSVTTTYLKWSSLKASDTATYYCVKGSETWGQGVLVTVSS
VL: B1 VL with K1N, P2F, P7S, T8A, N34H, L36F, K41N, A42P, T57E
B3: FVM09 (antibody, V domains shown)
VH: B2 VH with E6Q, G31D, I34V, S35A
VL: B1 VL with K1Q, P2L, M3V, T8A
B4: FVM04 (antibody, V domains shown)
VH: EVQLVQSGGGLVQPGGSMRLSCEASGLSLSDYFMHWVRQAQGKGLEWIGLIQTKAFTYKTEYPAAVKGRFTISRDDSKNTLYLQMSSLKPEDTALYYCIAVTPDFYYWGQGVLVTVSS
VL: DVVMTQSPSFLSASVGDRVTITCRASQDITINLNWFQHKPGKAPKRLIYVASRLERGVPSRFSGSGSGTEFTLTISSLQPEDFATYYCQQYNNYPLTFGPGTKLDIKR
B5: FVM01P (antibody, V domains shown)
VH: QVQLQESGPGLVKPSETLSLTCTVSGASISNYRWNWIRQPPGKGLEWIGEINGYSGSTNYNPSLKSRVTISKDASKNQFSLKLTSVTAADTAVYYCPIIGGFTLEWFDVWGPGVLVTVSS
VL: DVVLTQSPSSLSASVGDRVTITCRASQGIRNYLNWYQQKPRKAPKLLIYAASSLQSGVPSRFSGSGSGTEFTLTISSLQAEDFATYYCLQGYRTPFTFGPGTKLDIKR
B6: FVM02P (antibody, V domains shown)
VH: EVQLVESGGGLVQPGGSLRLSCAASGFTGFTFSDYAFYWVRQAPGKGLEWVGFIRGKAYGGTADYAASVKGRFTISRDNSKNTAYLQMSSLKTEDSAVYYCTSQGVTVATPYHWGQGVLVTVSS
VL: DIVLTQSPLSLPVTPGEPASISCRSSQSLLHSGGKTYLYWYLQKPGQSPQLLIHEVSNRASGVPDRFSGSGSGTDFTLKISRVEAEDVGVYYCMQGIQLPLTFGGGTKVEIKR

Where a chain is given by its changes, count along the chain named.

The target of one assay is EBOV GP[change] (Ebola virus (EBOV), UniProt Q05320). The assay is described as follows: ELISA.
For B1, the EC50 came out at 3 ng/mL.
Regarding B2, the EC50 came to 7 ng/mL.
On the same count and under the same terms, under B3 stands 5 ng/mL.
On to B4, for which the EC50 was found to be 12 ng/mL.
On the same count and under the same terms, with B5 the figure was 9 ng/mL; with B6, 10 ng/mL.

A further assay addresses T1, EBOV GPcl (Ebola virus (EBOV), UniProt Q05320 33-200; Q05320 502-632).
T1 chain 1: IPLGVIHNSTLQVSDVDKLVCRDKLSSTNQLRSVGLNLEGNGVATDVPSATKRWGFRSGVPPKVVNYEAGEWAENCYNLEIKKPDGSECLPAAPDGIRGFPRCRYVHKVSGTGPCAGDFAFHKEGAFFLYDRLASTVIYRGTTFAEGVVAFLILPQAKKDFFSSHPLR
T1 chain 2: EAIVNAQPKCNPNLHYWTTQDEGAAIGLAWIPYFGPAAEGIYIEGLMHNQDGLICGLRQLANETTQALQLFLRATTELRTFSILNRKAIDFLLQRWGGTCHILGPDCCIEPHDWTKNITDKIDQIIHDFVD
Put plainly: ELISA.
For B1, the EC50 is > 10000 ng/mL.
Same read-out and setting: with B2 the figure was > 10000 ng/mL; with B4, 8 ng/mL; with B5, 5 ng/mL.
The same measure, in the same setting: under B6 stands 5 ng/mL.

A further assay concerns the target T2, EBOV soluble GP (sGP) (Ebola virus (EBOV), UniProt P60170 33-324).
T2 chain: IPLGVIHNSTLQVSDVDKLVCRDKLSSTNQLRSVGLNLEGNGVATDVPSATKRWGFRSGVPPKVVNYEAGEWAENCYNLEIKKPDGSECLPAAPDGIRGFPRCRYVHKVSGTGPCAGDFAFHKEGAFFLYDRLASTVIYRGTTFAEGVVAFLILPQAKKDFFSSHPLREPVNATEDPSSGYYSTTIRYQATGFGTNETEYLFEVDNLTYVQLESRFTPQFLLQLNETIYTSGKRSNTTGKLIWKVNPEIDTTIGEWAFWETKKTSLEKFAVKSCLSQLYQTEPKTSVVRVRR
Put plainly: ELISA.
The molecule B1 yielded a 50% effective concentration (EC50) of 5 ng/mL.
As to B2, the EC50 is 23 ng/mL.
On the same count and under the same terms, with B3 the figure was 17 ng/mL; with B4, 7 ng/mL.
Same read-out and setting: under B5 stands 5 ng/mL.

A word on the EC50: it is the concentration at which the effect is half-maximal.
